Where a chain is given by its changes, count along the chain named. Values joined by “and” are separate entries in the source; they are usually repeats but may differ in a detail not shown here. Equal values may be shown once. Read-outs that look alike come from different tables or passages of the source.
How the values were obtained:
‘hu’ GHBP = target: T1, ‘hu’ GHBP (Rattus norvegicus, UniProt P16310, L61R); experiment: Species specificity of binding by ELISA and BIAcore, 'hu' GHBP; conditions: in words
T1 construct: 1–48 of GHBP; The 3′ oligo used for this reaction encoded the mutation L43R (CTG→AGA); The second PCR reaction amplified the DNA encoding amino acids 38–260; 6xHis; made in house
T1 sequence (P16310 19-278 isoform P16310-2 L61R): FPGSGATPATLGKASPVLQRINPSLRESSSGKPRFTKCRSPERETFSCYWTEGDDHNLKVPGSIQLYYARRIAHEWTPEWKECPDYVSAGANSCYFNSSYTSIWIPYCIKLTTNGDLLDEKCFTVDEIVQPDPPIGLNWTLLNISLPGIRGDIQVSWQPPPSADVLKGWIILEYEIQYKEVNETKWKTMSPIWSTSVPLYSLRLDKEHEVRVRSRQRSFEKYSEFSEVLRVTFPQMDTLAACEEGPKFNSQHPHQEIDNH
Description: Wells were coated with either recombinant rGHBP or ‘hu’ GHBP (100 ng/well). Additions of H5 (SEQ ID NO:8) and H10 (SEQ ID NOS:9, 80, and 81) phage (10^10/well) and detection were made as described. […] Streptavidin chips were coated with H5 (SEQ ID NO:8) to 1100 RU as described and rGHBP or ‘hu’ GHBP (500 μg/ml) injected as 30 μl samples.
Growth hormone receptors from different species bind human GH as well as their own GH, however human GHR only binds human or monkey GH. […] The sequence of rGHBP was altered by PCR to create a “humanized” version (‘hu’ GHBP; FIG. 9A). Partially purified ‘hu’GHBP (FIG. 9B) was tested for binding using ELISA and BIAcore analysis. […] This was confirmed by BIAcore analysis (FIG. 10B).
The biotinylated control peptide (SEQ ID NO:10) was immobilized onto one flow cell of a SA-5 (streptavidin coated) sensor chip to a final density of 700 RU. On a second flow cell, either hGH (1100 RU final density), H5WT peptide (SEQ ID NO:8; 1100 RU final density), or bGH (730 RU final density) was immobilized. GHBP (either rat or humanized) was injected at a concentration of 500 μg/ml with a flow rate of 5 μl/min. Background binding to the control surface was subtracted prior to further analysis.

rGHBP [1] = target: T2, rGHBP (Rattus norvegicus, UniProt P16310); experiment: Time-resolved fluorometric detection (TRFD) of specific bLigand binding to rGHBP and its competition; conditions: for IC50: competitor added 1 hr before bLigand
T2 construct: 1–48 of GHBP; The 3′ oligo used for this reaction encoded the mutation L43R (CTG→AGA); The second PCR reaction amplified the DNA encoding amino acids 38–260; 6xHis; made in house
T2 sequence (P16310 19-278 isoform P16310-2): T1 sequence (P16310 19-278 isoform P16310-2 L61R) with R43L
Description: For this invention, saEu forms a ternary complex with bP and rGHBP (i.e., the rGHBP:bP:saEu complex). As described herein, the TRFD assay is performed using biotinylated GH (bGH) as bLigand. Biotinylated H5-mutant peptides bP#447 (SEQ ID NO:11) and bP#418 (SEQ ID NO:12) are also used as bLigand (see below). The TRFD assay described herein faithfully reports the competition of ligand binding to the active site of rGHR. To perform the TRFD assays, soluble rGHBP is attached to the surface of microtiter wells, then incubated with bP. Unbound bP is than washed away and (sa)Eu is added to complex with receptor bound bP. The rGHBP:bP bound (sa)Eu is then converted into its highly fluorescent state and detected by TRFD.
Wells were coated with rGHBP(100 ng/well) overnight as described. ED50 and IC50 were calculated from analysis of specific bLigand binding to rGHBP. Competitors were added 1 hr prior to addition of bLigand as described.
rGHBP (50–200 μg/ml in 50 mM NaHCO3) was coated onto low-fluorescence MaxiSorp (Nunc) plates (100 μl/well) overnight at 4° C. The plates were blocked with PBS containing 2% non-fat milk and 0.05% BSA for 2 hr at room temperature, followed by three PBS washes. For competitions, serial dilutions of unlabelled growth hormone (0.1 nM-100 nM) or MAb 2C3 (0.67–67 nM) were added to the plates (100 μl/well) and incubated at room temperature for 1–2 hr. Biotinylated peptide or biotinylated GH (10× concentrations) were incubated in blocking buffer for 30 min to decrease non-specific binding. Ten microliters of the 10× concentrated material was added to the plates and incubated at room temperature for 1 hr to overnight.
The plates were then washed five times with Tris-buffered saline (pH 7.5) containing 0.1% Tween-20 (TTBS). To each well, 100 μl of europium-labeled streptavidin in DELFIA assay buffer (100 mM Tris-HCl, pH 7.8; 150 mM NaCl; 0.5% BSA; 0.05% bovine Ig; 0.05% NaN3; 0.01% Tween-20) was added and incubated for 1.5 hr at room temperature. The plates were then washed five times with TTBS and tapped dry. Subsequently, 100 μl of DELFIA enhancement solution (100 mM acetone-potassium hydrogen phthalate, pH 3.2; 15 mM 2-naphtyltrifluoroacetate; […] tri(n-octyl)-phosphine oxide; 0.1% Triton X-100) was added to each well, and the plates were shaken for 10 min at room temperature. Fluorescence of each sample well was measured at 615 nm using a DELFIA 1234 fluorometer (EG&G Wallac). General procedure and references as described by Wallac are available in “Lanthanide labeling for time-resolved fluorometry”: Wallac publication 1244–1126-03.

[2] = target: T3, ‘hu’ GHBP (humanized rat GHBP) (Rattus norvegicus, UniProt P16310, L61R); experiment: Phage ELISA binding and competition on 'hu' GHBP coated wells; conditions: ELISA signal
T3 construct: 1–48 of GHBP; The 3′ oligo used for this reaction encoded the mutation L43R (CTG→AGA); The second PCR reaction amplified the DNA encoding amino acids 38–260; 6xHis; made in house
T3 sequence (P16310 19-278 isoform P16310-2 L61R): T1 sequence (P16310 19-278 isoform P16310-2 L61R)
Description: For analysis of individual clones, colonies were picked and phage prepared as described above. Microtiter wells were coated and blocked as described above. Wells were coated with either rGHBP or a control IgG MAb. Phage resuspended in MPBS were added to duplicate wells (100 μl/well) and incubated at room temperature for 1 hr. The phage solution was then removed, and the wells were washed three times with PBS at room temperature. Anti-M13 antibody conjugated to horseradish peroxidase (Pharmacia Biotech) was diluted 1:3000 in MPBS and added to each well (100 μl/well). Incubation was for another hour at room temperature, followed by PBS washes as described. Color was developed by addition of ABTS solution (100 μl/well; Boehringer). Color development was stopped by adjusting each well to 0.5% SDS. Plates were analyzed at 405 nm using a SpectraMax 340 plate reader (Molecular Devices) and SoftMax Pro software. Data points were averaged after subtraction of appropriate blanks. A clone was considered “positive” if the A405 of the well was >2-fold over background.
Humanized GHBP (‘hu’ GHBP) contained the single amino acid change of rat GHBP amino acids L43 to R43, and was capable of binding human GH, as shown in FIG. 9. Direct immobilization of ‘hu’ GHBP was done as described earlier for panning of the secondary H5 library against rat GHBP and used inputs of ‘hu’ GHBP, prepared as described earlier of 100 μl per well of […] protein. Panning was performed with or without H10 peptide (SEQ ID NO:9; 30 μM) for 4 rounds, and 96 clones were picked.
(§1) Clones were tested for the presence of E-tag and binding to ‘hu’ GHBP, rGHBP, or BSA-coated wells. Those having specific GHBP binding (i.e., at least 2 fold greater binding to the GHBP than BSA) and with an E-tag positive signal were subjected to DNA sequencing. Three different clones were isolated and tested a second time against GHBP plus and minus GH (1 μM) or BSA (1 μM) coated wells as described. In these tests, huGH was used as competitor with ‘hu’ GHBP coated wells and bovineGH was used as a competitor with rat GHBP coated wells. […] The following open reading frame insertion including the DYKD (SEQ ID NO:79) amino terminal tag and up to the C-terminal E-tag was obtained for these clones; and is shown in Table III: […]

rGHBP [3] = target: T2, rGHBP; experiment: Phage ELISA binding and competition on rGHBP coated wells; conditions: ELISA signal
Description: For analysis of individual clones, colonies were picked and phage prepared as described above. Microtiter wells were coated and blocked as described above. Wells were coated with either rGHBP or a control IgG MAb. Phage resuspended in MPBS were added to duplicate wells (100 μl/well) and incubated at room temperature for 1 hr. The phage solution was then removed, and the wells were washed three times with PBS at room temperature. Anti-M13 antibody conjugated to horseradish peroxidase (Pharmacia Biotech) was diluted 1:3000 in MPBS and added to each well (100 μl/well). Incubation was for another hour at room temperature, followed by PBS washes as described. Color was developed by addition of ABTS solution (100 μl/well; Boehringer). Color development was stopped by adjusting each well to 0.5% SDS. Plates were analyzed at 405 nm using a SpectraMax 340 plate reader (Molecular Devices) and SoftMax Pro software. Data points were averaged after subtraction of appropriate blanks. A clone was considered “positive” if the A405 of the well was >2-fold over background. […]
These clones were next analyzed for binding to the receptor's active sites (FIG. 2B). Competitions of phage binding were done both with the cognate ligand (i.e., GH) and with a specific target-neutralizing MAb 2C3 (Wang, B. S., et al. Mol. Cellular Endocrinology, vol. 116, p. 223–226, 1996).
as §1

human GH: human growth hormone
binding to ‘hu’ GHBP (‘hu’ GHBP): bound to human GH

C[S+](C)[O-] [DMSO]
IC50 vs. bGH (rGHBP [1]; TRFD, DMSO effect on bGH binding): >>3% | IC50 vs. bP#418 (SEQ ID NO: 12) (rGHBP [1]; TRFD, DMSO effect on bP#418 binding): >>3% | IC50 vs. bP#447 (SEQ ID NO: 11) (rGHBP [1]; TRFD, DMSO effect on bP#447 binding): >>3% | DMSO IC50 (rGHBP [1]; specific binding of bGH (3 nM), bP#447 (0.3 μM) and bP#418 (0.3 μM), 0 to 20% DMSO): > 15 % (v/v)

445: H5-mutant peptide SEQ ID NO:13 (DYKDLCQRLGVGWPGWLAGWCA; #445 peptide) [compound 445]
ELISA Competition, ‘hu’GHBP, +BSA ([2]; BSA 1 μM): 0.11 | ELISA Competition, ‘hu’GHBP, +hGH ([2]; huGH 1 μM as competitor): 0.12 | ELISA Competition, ‘hu’GHBP, none ([2]; no competitor): 0.14 | ELISA Competition, rGHBP, +BSA (rGHBP [3]; BSA 1 μM): 0.44 | ELISA Competition, rGHBP, +bGH (rGHBP [3]; bovine GH 1 μM as competitor): 0.16 | ELISA Competition, rGHBP, none (rGHBP [3]; no competitor): 0.45 | saturation of receptors (rGHBP [1]; TRFD): could not be saturated

B1: GH: non-biotinylated growth hormone, the cognate ligand of GHBP (protein, UniProt P01244 27-216, looked up)
Somatotropin: FPAMPLSSLFANAVLRAQHLHQLAADTYKEFERAYIPEGQRYSIQNAQAAFCFSETIPAPTGKEEAQQRTDMELLRFSLLLIQSWLGPVQFLSRIFTNSLMFGTSDRVYEKLKDLEEGIQALMQELEDGSPRIGQILKQTYDKFDANMRSDDALLKNYGLLSCFKKDLHKAETYLRVMKCRRFAESSCAF
IC50 (rGHBP [1]; TRFD, competition of bGH (2 nM) binding, read-out: IC50 vs. bGH): 5 nM | IC50 (rGHBP [1]; TRFD, competition of bP#418 (300 nM) binding, read-out: IC50 vs. bP#418 (SEQ ID NO: 12)): 2 nM | IC50 (rGHBP [1]; TRFD, competition of bP#447 (300 nM) binding, read-out: IC50 vs. bP#447 (SEQ ID NO: 11)): 0.4 nM

B2: bGH: biotinylated GH used as bLigand in the TRFD assay (protein, UniProt P01244 27-216, looked up)
Somatotropin: B1 Somatotropin
modifications: biotin
notes: biotinylated GH used as bLigand in the TRFD assay
EC50 (rGHBP [1]; TRFD, wells coated with rGHBP 100 ng/well, read-out: ED50 (half-maximum specific binding)): ~20 nM and 20 nM

B3: rat GH: rat growth hormone (protein, UniProt P01244 27-216, looked up)
Somatotropin: B1 Somatotropin
binding to ‘hu’ GHBP (‘hu’ GHBP): failed to bind

B4: bovine GH: bovine growth hormone (protein)
chain: AFPAMSLSGLFANAVLRAQHLHQLAADTFKEFERTYIPEGQRYSIQNTQVAFCFSETIPAPTGKNEAQQKSDLELLRISLLLIQSWLGPLQFLSRVFTNSLVFGTSDRVYEKLKDLEEGILALMRELEDGTPRAGQILKQTYDKFDTNMRSDDALLKNYGLLSCFRKDLHKTETYLRVMKCRRFGEASCAF
binding to ‘hu’ GHBP (‘hu’ GHBP): failed to bind
